Consider 1 molecule from patent US20190055316A1.

For experiment [1], the target named is recombinant human soluble MSLN (human) (UniProt Q13421). Put plainly: Biacore (SPR), antibody captured on chip, rHuMSLN sol. in flow. (Surface plasmon resonance follows binding to a sensor surface in real time, without labels.)
Experiment [2] concerns the target native human MSLN expressed on the cell surface (N87 tumor cells) (human) (UniProt Q13421). The experiment can be described thus: KinExA on N87 cells compared with Biacore on soluble MSLN.
Experiment [3] shares this target. The experiment can be described thus: KinExA equilibrium binding to N87 tumor cells expressing native human MSLN. In general terms: A kinetic exclusion assay measures how much of one partner remains free in solution.

Chain of native human MSLN expressed on the cell surface (N87 tumor cells) (human) (Q13421 296-606 limits assumed): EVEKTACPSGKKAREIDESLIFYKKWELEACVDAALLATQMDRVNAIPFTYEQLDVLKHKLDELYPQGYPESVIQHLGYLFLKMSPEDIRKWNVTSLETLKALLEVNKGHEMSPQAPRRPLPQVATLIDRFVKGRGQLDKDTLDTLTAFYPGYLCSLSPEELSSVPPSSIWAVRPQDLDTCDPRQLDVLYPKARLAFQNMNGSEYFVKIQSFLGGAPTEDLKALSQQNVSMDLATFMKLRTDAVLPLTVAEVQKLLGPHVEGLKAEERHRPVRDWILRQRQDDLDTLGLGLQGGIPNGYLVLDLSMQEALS
Chain of recombinant human soluble MSLN (human) (Q13421 296-606 limits assumed): as above

B1: Ab237 (antibody, V domains shown)
VH: QVQLQESGPGLVKPSQTLSLTCTVSGGSINNNNYYWTWIRQHPGKGLEWIGYIYYSGSTFYNPSLKSRVTISVDTSKTQFSLKLSSVTAADTAVYYCAREDTMTGLDVWGQGTTVTVSS
VL: DIQMTQSPSSLSASVGDRVTITCRASQSINNYLNWYQQKPGKAPTLLIYAASSLQSGVPSRFSGSRSGTDFTLTISSLQPEDFAAYFCQQTYSNPTFGQGTKVEVK
One may read the Kd as a measure of binding affinity in units of concentration. As to B1, the Kd in experiment [1] turned out to be 0.097 nM; in experiment [3], 0.0035 nM. Further, in experiment [2], the fold higher selectivity for native surface bound MSLN compared to soluble MSLN turned out to be 30 fold.
